T1: dog iRhom1 full length wild type, T7-tagged (dog, UniProt A0A8I3MHT7 11-866)
T1 construct: whole, on cells; also called Dog-iR1-FL-WT-T7; expressed by MEF-DKO-Dog-iR1-FL-WT-T7 cells
T1 sequence: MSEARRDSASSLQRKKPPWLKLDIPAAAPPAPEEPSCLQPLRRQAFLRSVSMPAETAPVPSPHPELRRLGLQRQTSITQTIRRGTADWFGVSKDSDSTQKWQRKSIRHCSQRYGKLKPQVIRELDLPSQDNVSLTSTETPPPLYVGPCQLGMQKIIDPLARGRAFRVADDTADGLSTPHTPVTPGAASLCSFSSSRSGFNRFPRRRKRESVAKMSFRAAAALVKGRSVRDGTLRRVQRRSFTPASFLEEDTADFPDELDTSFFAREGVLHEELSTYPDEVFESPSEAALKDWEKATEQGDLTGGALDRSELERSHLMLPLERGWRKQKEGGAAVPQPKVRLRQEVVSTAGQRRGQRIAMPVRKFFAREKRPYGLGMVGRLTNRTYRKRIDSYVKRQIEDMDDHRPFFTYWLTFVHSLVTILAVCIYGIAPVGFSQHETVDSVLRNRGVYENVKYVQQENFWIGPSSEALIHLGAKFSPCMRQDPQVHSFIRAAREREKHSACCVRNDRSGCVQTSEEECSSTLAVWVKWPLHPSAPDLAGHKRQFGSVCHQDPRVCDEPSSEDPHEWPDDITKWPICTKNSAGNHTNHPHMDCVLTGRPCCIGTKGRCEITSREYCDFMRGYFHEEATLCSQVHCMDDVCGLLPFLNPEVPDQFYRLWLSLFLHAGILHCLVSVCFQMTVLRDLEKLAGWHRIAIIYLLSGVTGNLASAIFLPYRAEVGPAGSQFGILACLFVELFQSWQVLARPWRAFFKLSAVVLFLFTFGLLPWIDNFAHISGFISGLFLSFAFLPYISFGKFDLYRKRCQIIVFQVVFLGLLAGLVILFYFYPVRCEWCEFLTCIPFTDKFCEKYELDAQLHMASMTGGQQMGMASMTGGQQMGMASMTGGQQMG

T2: dog iRhom2 full length wild type C-terminally tagged with 3 consecutive copies of the T7 epitope (dog, UniProt Q00M95 1-827)
T2 construct: whole, on cells; also called dog-iR2-FL-WT-T7; expressed by MEF-DKO-Dog-iR2-FL-WT-T7 cells
T2 sequence: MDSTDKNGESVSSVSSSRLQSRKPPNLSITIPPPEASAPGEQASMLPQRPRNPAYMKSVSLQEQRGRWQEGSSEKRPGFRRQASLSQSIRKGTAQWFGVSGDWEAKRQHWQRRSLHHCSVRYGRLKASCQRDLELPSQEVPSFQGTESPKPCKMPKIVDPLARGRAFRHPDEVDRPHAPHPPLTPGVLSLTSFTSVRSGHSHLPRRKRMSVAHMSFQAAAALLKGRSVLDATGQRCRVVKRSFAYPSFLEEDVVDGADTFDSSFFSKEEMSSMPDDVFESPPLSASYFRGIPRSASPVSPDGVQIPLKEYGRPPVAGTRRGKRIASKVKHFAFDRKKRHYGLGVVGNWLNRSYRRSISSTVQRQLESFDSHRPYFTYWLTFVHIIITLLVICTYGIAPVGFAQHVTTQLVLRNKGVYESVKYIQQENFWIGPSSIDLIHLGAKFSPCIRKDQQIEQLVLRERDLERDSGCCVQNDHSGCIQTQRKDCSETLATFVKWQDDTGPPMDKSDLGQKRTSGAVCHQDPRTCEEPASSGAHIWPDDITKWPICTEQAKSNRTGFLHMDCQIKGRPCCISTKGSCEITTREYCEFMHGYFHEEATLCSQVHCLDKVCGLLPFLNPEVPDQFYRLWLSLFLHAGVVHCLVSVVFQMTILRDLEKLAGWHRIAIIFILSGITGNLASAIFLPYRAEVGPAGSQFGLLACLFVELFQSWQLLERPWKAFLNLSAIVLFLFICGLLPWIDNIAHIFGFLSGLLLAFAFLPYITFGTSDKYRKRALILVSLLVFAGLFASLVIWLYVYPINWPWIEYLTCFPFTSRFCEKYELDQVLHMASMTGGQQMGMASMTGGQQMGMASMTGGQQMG

B1: humanized antibody 42-B-04 (antibody, V domains shown)
VH: QVTLRESGPALVKPTQTLTLTCTFSGFSLSTFGRGVGWIRQPPGKALEWLAHIWWDDEKYYNSALKSRLTISKDTSKNQVVLTITNMDPVDTATYYCARIQNYGSNYWYFDVWGQGTLVTVSS
VL: AIQLTQSPSSLSASVGDRVTITCRASSRISYMFWYQQKPGKAPKVLIYDTSNLASGVPSRFSGSGSGTDYTLTISSLQPEDFATYYCQQWNAYPLTFGQGTKLEIK
notes: Tested as whole humanized antibody produced in CHO cells and detected with anti-human IgG; the general methods speak of human IgG1/Kappa; also called clone 42-B-04
B2: humanized antibody 23-B-04 (antibody, V domains shown)
VH: QVTLRESGPALVKPTQTLTLTCTFSGFSLSTFGMGVGWIRQPPGKALEWLAHIWWDDEKYYNSALKSRLTISKDTSKNQVVLTITNMDPVDTATYYCARISNYGSNYWYFNVWGQGTLVTVSS
VL: AIQLTQSPSSLSASVGDRVTITCRASSSVSYMYWYQQKPGKAPKVLIYDTSNLASGVPSRFSGSGSGTDYTLTISSLQPEDFATYYCQQWNAYPLTFGQGTKLEIK
notes: Tested as whole humanized antibody produced in CHO cells and detected with anti-human IgG; the general methods speak of human IgG1/Kappa; also called clone 23-B-04
B3: humanized antibody 42-B-02 (antibody, V domains shown)
VH: QVTLRESGPALVKPTQTLTLTCTFSGFSLSTFGRGVGWIRQPPGKALEWLAHIWWDDEKYYNSALKSRLTISKDTSKNQVVLTITNMDPVDTATYYCARIQNYGSNYWYFDVWGQGTLVTVSS
VL: AIQLTQSPSSLSASVGDRVTITCRASSRISYMFWYQQKPGKAPKVLIYDTSNLASGVPSRFSGSGSGTDYTLTISSLQPEDFATYYCQQWNSYPLTFGQGTKLEIK
notes: Tested as whole humanized antibody from transient expression of heavy chain/kappa light chain pairs in CHO cells, detected with anti-human IgG; the general methods speak of human IgG1/Kappa; also called clone 42-B-02
B4: humanized antibody 16-B-07 (antibody, V domains shown)
VH: QVTLRESGPALVKPTQTLTLTCTFSGFSLSTFALGVGWIRQPPGKALEWLAHIWWDEDKYYNPALKSRLTISKDTSKNQVVLTITNMDPVDTATYYCARITTYYYGMDYWGQGTLVTVSS
VL: EIVMTQSPDFQSVTPKEKVTITCRASQSIGNHLHWYQQKPDASPKLLIKYASQSISGVPSRFSGSGSGTDFTLTINSLEAEDAATYFCQQSYQWPLTFGQGTKLEIK
notes: Tested as whole humanized antibody produced in CHO cells and detected with anti-human IgG; the general methods speak of human IgG1/Kappa; also called clone 16-B-07
B5: humanized antibody 16-B-03 (antibody, V domains shown)
VH: QVTLRESGPALVKPTQTLTLTCTFSGFSLSTFALGVGWIRQPPGKALEWLAHIWWDDDKYYNPALKSRLTISKDTSKNQVVLTITNMDPVDTATYYCARITTYYYGMDYWGQGTLVTVSS
VL: EIVMTQSPDFQSVTPKEKVTITCRASQSIGNHLHWYQQKPDASPKLLIKYASQSISGVPSRFSGSGSGTDFTLTINSLEAEDAATYFCQQSYQWPLTFGQGTKLEIK
notes: Tested as whole humanized antibody produced in CHO cells and detected with anti-human IgG; the general methods speak of human IgG1/Kappa; also called clone 16-B-03
B6: humanized antibody 16-B-05 (antibody, V domains shown)
VH: QVTLRESGPALVKPTQTLTLTCTFSGFSLSTFALGVGWIRQPPGKALEWLAHIWWDEDKYYNPALKSRLTISKDTSKNQVVLTITNMDPVDTATYYCARITTYYYGMDYWGQGTLVTVSS
VL: EIVMTQSPDFQSVTPKEKVTITCRASQSIGNHLHWYQQKPDASPKLLIKYASQSISGVPSRFSGSGSGTDFTLTINSLEAEDAATYFCQQSYNWPLTFGQGTKLEIK
notes: Tested as whole humanized antibody produced in CHO cells and detected with anti-human IgG; the general methods speak of human IgG1/Kappa; The printed LCVD reads SRESGSG where the printed cDNA encodes SRFSGSG; also called clone 16-B-05

Columns and labels:
[1] = biological target: T1, dog iRhom1 full length wild type, …; assay: FACS on MEF-DKO-Dog-iR1-FL-WT-T7 cells
Protocol: (§1) In brief, immortalized MEF-DKO-EV control cells, MEF-DKO-rhesus-iR2-FL-WT-T7 cells, MEF-DKO-cyno-iR2-FL-WT-T7 cells, MEF-DKO-dog-iR2-FL-WT-T7 cells and MEF-DKO-rabbit-iR2-FL-WT-T7 cells, as well as their respective iRhom1 counterparts, were harvested with 10 mM EDTA in PBS, washed and resuspended in FACS buffer (PBS, 3% FBS, 0.05% sodium azide), and seeded in Nunc U-bottom 96-well plates (Thermo Fisher Scientific, USA) at approximately 3×10⁵ cells per well. To pellet cells and remove supernatants, the plates were centrifuged at 1,500 rpm and 4° C. for 3 minutes. For primary staining, cells were resuspended in 100 μl per well of either FACS buffer alone (controls), mouse monoclonal anti-T7 IgG (Merck Millipore, USA) at 3 μg/ml FACS buffer or the antibodies of the invention also at 3 μg/ml FACS buffer and incubated on ice for 1 hour. Afterwards, plates were centrifuged at 1,500 rpm and 4° C. for 3 minutes and washed twice with 200 μl per well of FACS buffer. For secondary staining of previous anti T7 staining, cells were spun down and resuspended in 100 μl per well of PE-conjugated goat anti-mouse IgG F(ab′)2 detection fragment (Dianova, Germany) diluted 1:100 in FACS buffer. For secondary staining of previous staining with humanized antibodies of invention, cells were spun down and resuspended in 100 μl per well of PE-conjugated goat anti-human IgG F(ab′)2 detection fragment (Dianova, Germany) diluted 1:100 in FACS buffer. Protected from light, the cell suspensions were incubated on ice for 1 hour. Plates were then centrifuged at 1,500 rpm and 4° C. for 3 minutes and washed three times with 200 μl per well of FACS buffer. Finally, cells were resuspended in 150 μl per well of FACS buffer and analyzed using a BD Accuri™ C6 Plus flow cytometer (Becton Dickinson, Germany).

[2] = biological target: T2, dog iRhom2 full length wild type …; assay: FACS on MEF-DKO-Dog-iR2-FL-WT-T7 cells, 3 µg/ml
Protocol: as §1

[3] = biological target: T2, dog iRhom2 full length wild type …; assay: FACS on MEF-DKO-Dog-iR2-FL-WT-T7 cells
Protocol: as §1, with “For secondary staining of previous staining with humanized antibodies of invention, cells were spun down and resuspended in 100 μl per well of PE-conjugated goat anti-human IgG F(ab′)2 detection fragment (Dianova, Germany) diluted 1:100 in FACS buffer. Protected from light, the cell suspensions were incubated on ice for 1 hour. Plates were then centrifuged at 1,500 rpm and 4° C. for 3 minutes and washed three times with 200 μl per well of FACS buffer.” left out

Binder	binding result [1]	binding result [2]	binding result [3]
B1	no binding (tested: 3 µg/ml)	binds	–
B2	no binding (tested: 3 µg/ml)	binds	–
B3	no binding (tested: 3 µg/ml)	binds	–
B4	no binding (tested: 3 µg/ml)	binds	–
B5	no binding (tested: 3 µg/ml)	–	binds
B6	no binding (tested: 3 µg/ml)	binds	–
